Measurements: PMC3757403

Biological target: de2-7EGFR (UniProt P00533)
Test: non-reducing SDS-PAGE and Western blot of disulfide-bonded dimers; cells washed and lysed in RIPA buffer with 10 mM iodoacetamide; non-reducing Laemmli buffer; blot probed with mAb806

## de2-7EGFR (from UniProt P00533 25-1210) (receptor)
  dimer as proportion of the total species: 25%
